Experiments:
[1] = target: T1, human PVRIG expressed on cells (human, UniProt Q6DKI7 41-326); assay: FACS, cells overexpressing target
T1 construct: whole, on cells; also called Human PVRIG FACS; cells overexpressing human PVRIG
T1 sequence (looked up): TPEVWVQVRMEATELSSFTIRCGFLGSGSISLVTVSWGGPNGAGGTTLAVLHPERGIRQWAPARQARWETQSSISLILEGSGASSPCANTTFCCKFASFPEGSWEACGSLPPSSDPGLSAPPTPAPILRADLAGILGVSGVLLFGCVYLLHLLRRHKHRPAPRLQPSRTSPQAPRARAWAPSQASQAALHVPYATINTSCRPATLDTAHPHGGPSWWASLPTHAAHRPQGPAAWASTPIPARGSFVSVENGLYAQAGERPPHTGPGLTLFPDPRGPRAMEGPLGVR

[2] = target: T1, human PVRIG expressed on cells; assay: FACS, HEK293 cells overexpressing target
Protocol: The expression plasmid carrying human or cynomolgus monkey PVRIG gene sequence was transfected into HEK293 cells, and the over-expressing stable transfection monoclonal cell strain was obtained by antibiotic screening and infinite dilution. Overexpressing cells were seeded into a 96-well plate at 2×10⁵ cells/per well. The cells were centrifuged at 300 g for 5 min, the supernatant was then removed, 100 μL of the test antibody was added, and the mixture was incubated at 4° C. for 1 h. The mixture was centrifuged, the supernatant was removed, the plate was washed 3 times with 200 μL of wash buffer (PBS+2% FBS), and then 100 μL of an anti-human IgG secondary antibody (Invitrogen, A-11013) labeled with Alexa Fluor 488 diluted at 1:500 was added. The mixture was incubated at 4° C. for 1 h. The plate was centrifuged, and the supernatant was removed. The plate was washed 3 times with 200 μL of wash buffer (PBS+2% FBS). The cells were resuspended in 100 μL of PBS and tested on a flow cytometer (BD FACS Calibur or BD FACS Canto_II).
Binding of the humanized anti-PVRIG antibodies to human or cynomolgus monkey PVRIG was detected by using a flow cytometer according to the method of Example 5.

EC50 [1]: 3.15 nM | EC50 [2]: 0.16 nM
B1: positive antibody Tab5 (antibody, human IgG4 S228P, kappa, F234A L235A, V domains shown)
VH: EVQLVESGGGVVKPGGSLRLSCAASGFTFGTSSMNWVRQAPGKGLEWVAVISFDGTEIHYADSVKGRFTISRDNSKSTVFLQMNSLRPDDTALYYCAKGSGNIYFYSGMDVWGQGTTVTVSS
VL: DIQMTQSPSTLSASVGDRVTITCRAGQSISGWLAWFQQKPGKAPNLLIYETSTLESGVPSRFSGSGSGTEYTLTISSLQPDDFATYYCQQYYSYPLTFGQGTKVEIKR
notes: Variable regions of CPA.7.021 (WO2016134333A1) on human IgG4 (S228P/F234A/L235A/K447A) and human kappa constant regions
